System: T1, CCCCCCCCCCCCCCCC(=O)Oc1ccc([N+](=O)[O-])cc1
T1 construct: N-terminal His-tag, secreted from Pichia pastoris GS115 (pPIC9K), Ni-NTA purified
Test: p-nitrophenol release, Michaelis-Menten fit
Format: biochemical, Thermomyces lanuginosus
Conditions: 37 °C, pH 9.0, 100 mM Tris-HCl, pNPP 0.08-10.00 mM, apparent Km
Excerpt: p-nitrophenol release, Michaelis-Menten fit on TLL (Thermomyces lanuginosus lipase)

Substance	Km	Vmax	kcat	kcat/Km
TLL (Thermomyces lanuginosus lipase) (Thermomyces lanuginosus; R231V)	140 ± 20 µM	260 µmol/min/mg	713 ± 8.11 s⁻¹	5.09e+06 ± 57900 M⁻¹ s⁻¹
TLL (Thermomyces lanuginosus lipase) (Thermomyces lanuginosus; R231A)	230 ± 30 µM	384 µmol/min/mg	1220 ± 43 s⁻¹	5.31e+06 ± 187000 M⁻¹ s⁻¹
TLL (Thermomyces lanuginosus lipase) (Thermomyces lanuginosus; R231T)	190 ± 30 µM	344 µmol/min/mg	1090 ± 27.6 s⁻¹	5.75e+06 ± 146000 M⁻¹ s⁻¹
TLL (Thermomyces lanuginosus lipase) (Thermomyces lanuginosus; R231I)	180 ± 20 µM	303 µmol/min/mg	767 ± 22.8 s⁻¹	4.26e+06 ± 127000 M⁻¹ s⁻¹
TLL (Thermomyces lanuginosus lipase) (Thermomyces lanuginosus; R231Q)	230 ± 30 µM	354 µmol/min/mg	788 ± 7.98 s⁻¹	3.42e+06 ± 34700 M⁻¹ s⁻¹
TLL (Thermomyces lanuginosus lipase) (Thermomyces lanuginosus; R231E)	140 ± 20 µM	301 µmol/min/mg	1230 ± 27.6 s⁻¹	8.79e+06 ± 197000 M⁻¹ s⁻¹
TLL (Thermomyces lanuginosus lipase) (Thermomyces lanuginosus; R231K)	170 ± 20 µM	345 µmol/min/mg	1100 ± 14 s⁻¹	6.5e+06 ± 82500 M⁻¹ s⁻¹
TLL (Thermomyces lanuginosus lipase) (Thermomyces lanuginosus; R231P)	160 ± 20 µM	339 µmol/min/mg	1387 ± 12.8 s⁻¹	8.669e+06 ± 80300 M⁻¹ s⁻¹
TLL (Thermomyces lanuginosus lipase) (Thermomyces lanuginosus; R231M)	190 ± 30 µM	319 µmol/min/mg	765 ± 17.6 s⁻¹	4.02e+06 ± 92400 M⁻¹ s⁻¹
TLL (Thermomyces lanuginosus lipase) (Thermomyces lanuginosus; R231H)	180 ± 20 µM	330 µmol/min/mg	790 ± 22.7 s⁻¹	4.39e+06 ± 126000 M⁻¹ s⁻¹
